Measurements as given in US20210324417A1 (RESEARCH INSTITUTE AT NATIONWIDE CHILDREN S HOSPITAL, published 2021).

Target: neuropilin-1 (NRP1) (mouse (endogenous protein of the mouse …, UniProt P97333 22-923))
Test: co-immunoprecipitation with anti-NRP1 antibody from NSC-34 lysates, anti-V5 Western blot
Experimental: Cells were grown to 70% confluency before transfection. A human wild-type, P234KY, or ΔETAQ GARS cDNA was cloned into the pcDNA6 plasmid to express GARS in-frame with a V5 tag. Transfections were performed using Lipofectamine 2000 (Invitrogen) according to the manufacturer's instruction. For cell lysate preparations, NSC-34 cells (36 hours after transfection) were washed twice in phosphate-buffered saline (PBS), scraped into PBS, pelleted, and resuspended in Pierce IP Lysis Buffer (Thermo Scientific) for 30 min and centrifuged for 7 min at 12,000×g; the insoluble fraction was discarded. Protein G beads (Invitrogen) were pre-incubated with anti-NRP1 antibody (Abcam) or rabbit IgG (Cell signaling) for 30 min before mixed with the cell lysates for overnight. […] Wild-type and mutant GARS proteins were detected using mouse monoclonal V5 antibody purchased from Invitrogen. NRP1 was detected by utilizing the same antibody for co-immunoprecipitation. […]
After immunoprecipitation with an anti-NRP1 antibody, proteins were subjected to Western blot analysis using an anti-V5 antibody. […] Nevertheless, no interaction between ΔETAQ GARS and NRP1 was detected in unbiased mass spectrometry analyses of proteins immuno-precipitated from mouse neuroblastoma (MN1) cells expressing FLAG-tagged wild-type or V5-tagged ΔETAQ GARS.

- binding result: no binding
B1: V5-tagged wild-type human GARS (glycyl-tRNA synthetase) (enzyme, UniProt P41250-2 1-685, looked up)
chain: MDGAGAEEVLAPLRLAVRQQGDLVRKLKEDKAPQVDVDKAVAELKARKRVLEAKELALQPKDDIVDRAKMEDTLKRRFFYDQAFAIYGGVSGLYDFGPVGCALKNNIIQTWRQHFIQEEQILEIDCTMLTPEPVLKTSGHVDKFADFMVKDVKNGECFRADHLLKAHLQKLMSDKKCSVEKKSEMESVLAQLDNYGQQELADLFVNYNVKSPITGNDLSPPVSFNLMFKTFIGPGGNMPGYLRPETAQGIFLNFKRLLEFNQGKLPFAAAQIGNSFRNEISPRSGLIRVREFTMAEIEHFVDPSEKDHPKFQNVADLHLYLYSAKAQVSGQSARKMRLGDAVEQGVINNTVLGYFIGRIYLYLTKVGISPDKLRFRQHMENEMAHYACDCWDAESKTSYGWIEIVGCADRSCYDLSCHARATKVPLVAEKPLKEPKTVNVVQFEPSKGAIGKAYKKDAKLVMEYLAICDECYITEMEMLLNEKGEFTIETEGKTFQLTKDMINVKRFQKTLYVEEVVPNVIEPSFGLGRIMYTVFEHTFHVREGDEQRTFFSFPAVVAPFKCSVLPLSQNQEFMPFVKELSEALTRHGVSHKVDDSSGSIGRRYARTDEIGVAFGVTIDFDTVNKTPHTATLRDRDSMRQIRAEISELPSIVQDLANGNITWADVEARYPLFEGQETGKKETIEE
notes: Expressed by transfection in mouse NSC-34 cells and tested from the cell lysate; also called wild-type GARS; WT GARS; not shown: V5 tag expressed in-frame from pcDNA6
